This sample holds only a part of the variants without activity.
B1: TPR 5TU (parent)
chain: GGAUCUUCUCGAUCUAACAAAAAAGACAAAUCUGCCACAAAGCUUGAGAGCAUCUUCGGAUGCAGAGGCGGCAGCCUUCGGUGGCGCGAUAGCGCCAACGUUCUCAACUAUGACACGCAAAACGCGUGCUCCGUUGAAUGGAGUUUAUCAUG

Variants of: B1
Assay: polymerase ribozyme fitness, log enrichment relative to wild type (log ratio); higher = more active; in vitro selection for triplet polymerase activity
Summary of the method: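 Only genotypes with ≥10 input reads and ≥1 read per output were kept after Illumina sequencing of input and output libraries. These libraries were PCR-built, transcribed mutants of each subunit of a heterodimeric triplet polymerase ribozyme, each put through one triplicate in vitro selection round with frozen incubation at −7 °C, gel excision of extended constructs, streptavidin-bead capture and RT-PCR. Fitness is a logarithmic ratio of genotype enrichment to wild-type enrichment, from inverse-variance-weighted replicate averages, with the logarithm in base 2.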

Variant	polymerase ribozyme fitness (log ratio)
GGAUCUUCUCGAUCUAACAAAAAAGACAAAUCUGCCACAAAGCUUGAGAGCAUCUUCGGAUGCAGAGGCAGCACCCUUCGGUGGCGCGAUAGCGCCAACGUUCUCAACUAUGACACGCAAAACGGGUGCUCCGUUGAAUGGAGGUUAUCAUG [G70A G74C C125G U144G]	≤ -4.2
GGAUCUUCUCGAUCUAACAAAAAAGACAAAUCUGCCACAAAGCUUGAGAGCAUCUUCGGAUGCAGAGGCAGCAGCCUUCGGUUGCGCGAUAGCGCCAACGUUCUAAACUAUGACACGCAAAACGCGUGCUCCGUUGAAUGGAGUUUCACAUG [G70A G83U C105A A147C U148A]	≤ -4.2
GGAUCUUCUCGAUCUAACAAAAAAGACAAAUCUGCCACAAAGCUUGAGAGCAUCUUCGGAUGCAGAGGCAGCAGCCUUCGGUGGCGCGAUAGCGCCAACCUUCUCAACUAUGACACGCAAAACGCGUGCUCCGUUGAAUGGAGUUUAUCAUG [G70A G100C]	≤ -4.2
GGAUCUUCUCGAUCUAACAAAAAAGACAAAUCUGCCACAAAGCUUGAGAGCAUCUUCGGAUGCAGAGGUGGCAGCCUUCGGUGGCGCGAUAGCACCAACGUUCUCAACUAUGACACGCAAAGCGCGUGCUCCGUAGAAUGGAGUUGAUCAUG [C69U G94A A122G U135A U146G]	-2.95
GGAUCUUCUCGAUCUAACAAAAAAGACAAAUCUGCCACAAAGCUUGAGAGCAUCUUCGGAUGCAGAGGUGGCAGCCUUCGGUGGCGCGAUAGCGCCAACGUUCUCAACUAUGACACGCAAAACGCGUCCCCGGUAGACUGGAGUUUAUCAUG [C69U G128C U130C C132G U135A A138C]	≤ -4.2
GGAUCUUCUCGAUCUAACAAAAAAGACAAAUCUGCCACAAAGCUUGAGAGCAUCUUCGGAUGCAGAGGCAGCAGCCUUCGGUGGCUCGAUAGCGCCAACGUUCUCAACUAUGACACGCAAAACGCGUGCUCCGUUGAAUGGAGUUUAUCAUG [G70A G86U]	-3.77
GGAUCUUCUCGAUCUAACAAAAAAGACAAAUCUGCCACAAAGCUUGAGAGCAUCUUCGGAUGCAGAGGCAGCAGCCUUCGGUGACGGGAUAGCGCCAACGUUCUCAACUAUGCCACGCAGAACGCGUGCUCCGUUGAAUGGAGUUUAUCAUG [G70A G84A C87G A113C A120G]	≤ -4.2
GGAUCUUCUCGAUCUAACAAAAAAGACAAAUCUGCCACAAAGCUUGAGAGCAUCUUCGGAUGCAGAGGCAGCAGCCUUCGGUGGCGCGAUAGCGCCAACGUUCUCAACUAUGACACGCAAAUCGCGUGCUCCGUUGAAUGGAGUUUAUCAUG [G70A A122U]	-3.6
GGAUCUUCUCGAUCUAACAAAAAAGACAAAUCUGCCACAAAGCUUGAGAGCAUCUUCGGAUGCAGAGGUGGCAGCCUUCGGUGGCGCGAUAGCCCCAACGUUCUCAACUAUGACACGCAAAACGCGUGCUCCGUUGAAUGGAGUUUAUCAUG [C69U G94C]	-1.65
GGAUCUUCUCGAUCUAACAAAAAAGACAAAUCUGCCACAAAGCUUGAGAGCAUCUUCGGAUGCAGAGGUGGCAGCCUUCGGUGGCGCGAUAGCGCCAACGUUCUCAACUAUGACACGCAAAACGCAUGCUCCGUUGAAUGGAGUUUAUCAUG [C69U G126A]	0.958
GGAUCUUCUCGAUCUAACAAAAAAGACAAAUCUGCCACAAAGCUUGAGAGCAUCUUCGGAUGCAGAGGCAGCAACCUUCGGUGGCGCGAUAGCGCCAACGGUCCCAACUAUGACACGCAAAACGCGUGCUCCGUUGAAUGGAGUUUUUCAUG [G70A G74A U101G U104C A147U]	≤ -4.2
GGAUCUUCUCGAUCUAACAAAAAAGACAAAUCUGCCACAAAGCUUGAGAGCAUCUUCGGAUGCAGAGGCAGCAGCCUUCGGUGGCGUGAUAGCGCAAACGUUCUCAACUAUGACACGGAAAACGCGUGCUCCGUUGAAUGGAGUUUCUCAUG [G70A C87U C96A C118G A147C]	≤ -4.2
GGAUCUUCUCGAUCUAACAAAAAAGACAAAUCUGCCACAAAGCUUGAGAGCAUCUUCGGAUGCAGAGGCAGCAGCCUUAGGUGGCGGGAUAGCGCCAAUGUUCUUAACUAUGACACGCAAAACGCGUGCUCCGUUGAAUGGGGUUUAUCAUG [G70A C79A C87G C99U C105U A142G]	≤ -4.2
GGAUCUUCUCGAUCUAACAAAAAAGACAAAUCUGCCACAAAGCUUGAGAGCAUCUUCGGAUGCAGAGGCAGCAGCCUUCGGUGGCGCGAUAGCGCCAACGUUCUCAACUAUGACACGCAAAACGCGUGCUCCGUUGAAUGGAGUUUUUCAUG [G70A A147U]	-2.67
GGAUCUUCUCGAUCUAACAAAAAAGACAAAUCUGCCACAAAGCUUGAGAGCAUCUUCGGAUGCAGAGGUGGCAGCCUUCGGUGCCGCGAUAGCGCCAACGUUCUCAACUAUGACACGCAAAACGCGUGCUCGGUUGAAUGGAAUUUAUCAUG [C69U G84C C132G G143A]	≤ -4.2
GGAUCUUCUCGAUCUAACAAAAAAGACAAAUCUGCCACAAAGCUUGAGAGCAUCUUCGGAUGCAGAGGUGGCAGCCUUCGGUGGCCCGAUAGCGCCAACGUUCUCAACUAUGACACGCAAAACGCGUGCUCCGUUGAAUGGAGUUUAUCAUG [C69U G86C]	≤ -4.2
GGAUCUUCUCGAUCUAACAAAAAAGACAAAUCUGCCACAAAGCUUGAGAGCAUCUUCGGAUGCAGAGGCAGCAGCCUUCGGUGGCGCGAUUGCGCCAACGUUCUCAACUAUGACACGCAAAAUGCGUGCUCCGUUGACUGGAGUUUAUUAUG [G70A A91U C123U A138C C149U]	≤ -4.2
GGAUCUUCUCGAUCUAACAAAAAAGACAAAUCUGCCACAAAGCUUGAGAGCAUCUUCGGAUGCAGAGGCAGCAGCCUUCGGUGGCGCGAUAGCGCCAACGUUCUCAACUGUGACACGCAAAACGCGUGCUCCGUUGAAUGGGGUUUAUCAUG [G70A A110G A142G]	-4.14
GGAUCUUCUCGAUCUAACAAAAAAGACAAAUCUGCCACAAAGCUUGAGAGCAUCUUCGGAUGCAGAGGUGGCAGCCUUCGGUGUCGCGAUAGCGCCAACGUUCUCAACUAUGACACGCAAAACGCGUGCUCCCUUGAAUGGAGUUUAUCAUG [C69U G84U G133C]	-3.62

Variant	polymerase ribozyme fitness (log ratio)
GGAUCUUCUCGAUCUAACAAAAAAGACAAAUCUGCCACAAAGCUUGAGAGCAUCUUCGGAUGCAGAGGUGGCAGCCUUCGGUGACGCGAUAGCGCCAACGUUCUCCACUAUGACACGCAAAACGCGUGCUCCGUUGAAUGGAGUUUAUCAUG [C69U G84A A106C]	-2.41
GGAUCUUCUCGAUCUAACAAAAAAGACAAAUCUGCCACAAAGCUUGAGAGCAUCUUCGGAUGCAGAGGCAGCAGCCUUCGGUGGCGCGAUAGCGCUAACGUUCUCAACUAUGACACGCAAAACGCGUGCUCCGUUGAAUGGAGUUUAUCAUG [G70A C96U]	-2.89
GGAUCUUCUCGAUCUAACAAAAAAGACAAAUCUGCCACAAAGCUUGAGAGCAUCUUCGGAUGCAGAGGCAGCAGCCUUCGGUGUCGCGAUAGCGCCAACGUUCUCAACUAUGACAAGCAAAACGCGUGCUCCGUUGAAUGGAGUUUAUCAUG [G70A G84U C116A]	-4.13
GGAUCUUCUCGAUCUAACAAAAAAGACAAAUCUGCCACAAAGCUUGAGAGCAUCUUCGGAUGCAGAGGCAGCUGCCUUCGGUGGCGCGAUAGCGCCAACGUUCUCAACUAUGACACGCAAAACGCGUGCUCCAUGGAAUGGAGUUUAUCAUG [G70A A73U G133A U135G]	≤ -4.2
GGAUCUUCUCGAUCUAACAAAAAAGACAAAUCUGCCACAAAGCUUGAGAGCAUCUUCGGAUGCAGAGGUGGCAGCCUUCGGUGGCGCGAUAGCGCCAACAUUCUCAACUAUGACACGCAAAACGCGUGCUCCGUUGCAUGGAGUUUAUCAUG [C69U G100A A137C]	≤ -4.2
GGAUCUUCUCGAUCUAACAAAAAAGACAAAUCUGCCACAAAGCUUGAGAGCAUCUUCGGAUGCAGAGGCAGCAGCCUUCGGUGGCGCGAUAGCGCCAACGCUGUCAACUAUGACACGCAAAAUGCGUGCUCCGUUGAAUGGAGUUUAUCAUG [G70A U101C C103G C123U]	≤ -4.2
GGAUCUUCUCGAUCUAACAAAAAAGACAAAUCUGCCACAAAGCUUGAGAGCAUCUUCGGAUGCAGAGGCAGCAGCCUUCGGUGGCGCGAUAGCGCCAACGUUCUCAACUAUGACACGCAAAACGCGUGCUCCGUUGAAUGAAGUUUAUCAUG [G70A G141A]	-3.46
GGAUCUUCUCGAUCUAACAAAAAAGACAAAUCUGCCACAAAGCUUGAGAGCAUCUUCGGAUGCAGAGGCAGCAGCCUUCGGUGGCGUGAUAGCGCCAACGUUCUCGACUAUGACACGCAAAACGCGUGCUCCGUUGAAUGGAGUUUAUCAUG [G70A C87U A106G]	-2.89
GGAUCUUCUCGAUCUAACAAAAAAGACAAAUCUGCCACAAAGCUUGAGAGCAUCUUCGGAUGCAGAGGCAGCAGCCUUCGGUGGCGCCAUAGCGCCAACGUUCUCAACUAUGACACGCAAAACGCGUGCUCCGUUGAAUGGAGCUUAUCAUG [G70A G88C U144C]	≤ -4.2
GGAUCUUCUCGAUCUAACAAAAAAGACAAAUCUGCCACAAAGCUUGAGAGCAUCUUCGGAUGCAGAGGUGGCAGCCUACGGUGGCGCGAUAGCGCCUACGUUCUCAACUAUGACACGCAAAACGCGUGCUCCGUUGAAUGGACUUUAUCAUG [C69U U78A A97U G143C]	≤ -4.2
GGAUCUUCUCGAUCUAACAAAAAAGACAAAUCUGCCACAAAGCUUGAGAGCAUCUUCGGAUGCAGAGGUGGCAGCCUUCGGUGGCGCGAUAGCGCCAACGUUCUCAACUAUGACACGCAAAACGCGUGCUCCGUUAAAUGGUGUUUAUCAUG [C69U G136A A142U]	-0.531
GGAUCUUCUCGAUCUAACAAAAAAGACAAAUCUGCCACAAAGCUUGAGAGCAUCUUCGGAUGCAGAGGCCGCAGACUUCGGUGGCGCGAUAGCGCCAACGUUCUCAACGAUGACACGCAAAACGCGUGCUCCGUUGCAUGGAGUUUAUCAUG [G70C C75A U109G A137C]	≤ -4.2
GGAUCUUCUCGAUCUAACAAAAAAGACAAAUCUGCCACAAAGCUUGAGAGCAUCUUCGGAUGCAGAGGCCGCAGCCUUCGGUGGCGCGAUAGCGCCAACGUUCUCAACUAUGACACGCAAAACGCGUGCUCCGUUGAAUGGCGUUUAUCAUG [G70C A142C]	-3.72
GGAUCUUCUCGAUCUAACAAAAAAGACAAAUCUGCCACAAAGCUUGAGAGCAUCUUCGGAUGCAGAGGCAGCAGCCUUCGGUGGCGCCAUAGCGCGAACGUUCUCAACUAUGACACGCAAAACGCGUGCUCCGGUGAAUGGAGUUUAUCAUG [G70A G88C C96G U134G]	≤ -4.2
GGAUCUUCUCGAUCUAACAAAAAAGACAAAUCUGCCACAAAGCUUGAGAGCAUCUUCGGAUGCAGAGGCAGCAGCAUUGGGUGGCGCGAUUGCGCCAACGUUCUCAACUAUGACACGCAAAACGCGUGCUCCGUUGAAUGGAGUUUAUCAUG [G70A C76A C79G A91U]	≤ -4.2
GGAUCUUCUCGAUCUAACAAAAAAGACAAAUCUGCCACAAAGCUUGAGAGCAUCUUCGGAUGCAGAGGCAGCAGCCUUCGGUGGCGCGAUAGUGCCAACGUUCUCAACUAUGACACGCAAAACGCGUGCUCCGUUGAAUGCAGUUUAUCAUG [G70A C93U G141C]	≤ -4.2
GGAUCUUCUCGAUCUAACAAAAAAGACAAAUCUGCCACAAAGCUUGAGAGCAUCUUCGGAUGCAGAGGCAGCAGCCUUCGGUGGCGCGAUAGCGCCUACGUUCUCAACUAUGACACGCAAAACGCGUGCUCCGUUGAAUGGAGUUUAUCAUG [G70A A97U]	-3.59
GGAUCUUCUCGAUCUAACAAAAAAGACAAAUCUGCCACAAAGCUUGAGAGCAUCUUCGGAUGCAGAGGCAGCAGCCUUCGGUGGCGCGAUAGCGCCGACGUUCUCAACUAUGACACGCAAAACGCGUGCUCCGUUGAAUGGAGUUUAUCAUG [G70A A97G]	-3.26
GGAUCUUCUCGAUCUAACAAAAAAGACAAAUCUGCCACAAAGCUUGAGAGCAUCUUCGGAUGCAGAGGCAGCAGCCUUCGGUGGCACGGUAGCGCCAAAGUUCUCAACUAUGACACGCAAAACGCGUGCUCCGUUGAAUGGAGUUUAUCAUG [G70A G86A A89G C99A]	≤ -4.2

Reference: the RNAGym collection of RNA variant scans (doi:10.1073/pnas.2313332121)
